Laboratory results reported in the DeepSol protein solubility set.

experiment: soluble on expression in E. coli; label from the status in PepcDB or PDB records

Soluble on expression in E. coli, not soluble:
MGSDKIHHHHHHMQNVNSAFEYCDQLVKDFERVIEHPIVSKSSVYYTGIDLGTAYIVLAVLDENYQPVAGAYRFANVVKDGMVVDYIGAIRIVKELKQELEERLDTELVYAAAALPPGTMALDSGVIKHVVQGAGFEITNLLDEPTAANAVLKIKDGAIVDIGGGTTGITILKDGEVIYVADEPTGGTHFSLVIAGAYKMSFDEAENYKQNPKNHRELTPVVGPVVEKVSSILNRHLRDYQVETIYLVGGTCCLEGIETIIARQTGIPTYKPQNPMFVTPLGIALNCTQEIL
MGSDKIHHHHHHMQQAHNDGVVSAMSQATDARLAAQDLARQLLHPHLGFVLFFCSAEYDLQALGEALEQDFGGIRLVGCTSAGEITPLGYGRNCVTAVGFDHRHFSIATALIDEMERFSLIDAQQMVERLVGTCRSNTLAPIKGHSFALTLLDGLSSREEMVLAALSAALGDIPHFGGSAGDDNYLNRTHVYYGGAFHNGAAVVVLVNTWLDFEVFTTHHILPRQEKLVVTGADSAQRRVFELNAEPAAEEYARHIGVPVAALDHRVFAAHPLAVRIHDQYYVRAIQQMHPDLSLSFYCAVENGIVLTAMTPGPLLPNLHQLFDGLHQRLGPLLLTIGCDCFLRRLELEAHRGLEPVGAFLREQRVIGFNTYGEQFNGMHINQTFTGVAIARNRPPVGR
MGSDKIHHHHHHMQQPLAYRMRPRHLDEVVGQQHLVGPGKIIRRMVEAKMLSSMILYGPPGTGKTSIASAIAGSTNYAFRMLNAATDTKKDLQIVAEEAKMSGTVILLLDEIHRLDKTKQDFLLPHLENGRIIMIGATTENPYITINPAIRSRTQIFEVKPLTETDIQQAIQEALTDSTRGLGDYPVHLEEKALQHLTRATNGDLRSALNGLELAVKSTPKNEQGEIKITLPIIEECVQRKALTHVKDGDAHYDVISAFQKSIRGSDVDAALHYLGRLVEAGDLPIICRRLMVIAYEDIGLGNPAAAARTVTAVQAAEKLGFPEARIPLASVVIDLCLSPKSNSAVTAIDAALADIRQGSVGDVPDHLRDAHYAGAKELNRGIGYQYPHNFENGWVNQQYLPDKLKEARYYEPIDIGKYEQALHQQLKRIQEWKQKK
MGSDKIHHHHHHMQTAARRSFDYDMPLIQTPTSACQIRQAWAKVADTPDRETADRLKDEIKALLKETNAVLVAHYYVDPLIQDLALETGGCVGDSLEMARFGAEHEAGTLVVAGVRFMGESAKILCPEKTVLMPDLEAECSLDLGCPEEAFSAFCDQHPDRTVVVYANTSAAVKARADWVVTSSVALEIVSYLKSRGEKLIWGPDRHLGDYICRETGADMLLWQGSCIVHNEFKGQELAALKAEHPDAVVLVHPESPQSVIELSDVVGSTSKLLKAAVSRPEKKFIVATDLGILHEMQKQAPDKQFIAAPTAGNGGSCKSCAFCPWMAMNSLGGIKYALTSGRNEILLDRKLGEAAKLPLQRMLDFAAGLKRGDVFNGMGPA
MGSDKIHHHHHHMQVVLRIDEKDTRTLQQQVFHQIRALILEGRLRSGDPVPASRELSQQLGVSRNTVLIAYEHLLSEGYLESRANVGTFVSSALPEMSMSTLTSPANDQPSEPSGQSPAPACMPLLEHSVISPNRKKDTVDFWVGRSDGSAFPAREWRRILDTKLRHAKGQLSEYHDPRGLREFRQALADHIGPTRGVLAKPEDVVCVGGSQDGLALIARAFSRTFRTFIHEDPCYLGARAVFSNFSYDTVAVPVDRDGLRVDLLPETGRSLLYVTPSHQYPTGVTLSLERRLQLLQWAERTDSIVIEDDYDGDFRYEGTPLTALRGLDRAGRVIYLGTFSKSFGPAIRIGYLVSTAELSDAFAMWKGILSNGQPWLEQAAMADFITGGSFRRHLRRIRSTYMARRDLLARELTTRIPGTSIHGMRGGMHISARLPKGICAETLQKAAAEHRIAIYRARDCGAWLSPSNTDFDDLLVLGYAAVSDRNIRKAVDVLAHAAEQQSG
MGSDKIHHHHHHMRDLLSKKSHRQLELLELLFEHKRWFHRSELAELLNCTERAVKDDLSHVKSAFPDLIFHSSTNGIRIINTDDSDIEMVYHHFFKHSTHFSILEFIFFNEGCQAESICKEFYISSSSLYRIISQINKVIKRQFQFEVSLTPVQIIGNERDIRYFFAQYFSEKYYFLEWPFENFSSEPLSQLLELVYKETSFPMNLSTHRMLKLLLVTNLYRIKFGHFMEVDKDSFNDQSLDFLMQAEGIEGVAQSFESEYNISLDEEVVCQLFVSYFQKMFFIDESLFMKCVKKDSYVEKSYHLLSDFIDQISVKYQIEMENKDNLIWHLHNTAHLYRQELFTEFILFDQKGNTIRNFQNIFPKFVSDIKKELSHYLETLEVCSSSMMVNHLSYTFITHTKHLVINLLQNQPKLKVLVMSNFDQYHAKFVAETLSYYCSNNFELEVWTELELSKESLEDSPYDIIISNFIIPPIENKRLIYSNNINTVSLIYLLNAMMFIRLDE
MGSDKIHHHHHHMRDYSPYPLLVDVCVTNRCNLSCSYCSAEAGPFASKKGEMSVEKLDSIFRELNLMGVPRVGVTGGEPFIRDDILDILKAFDKYHFAKVLNTNGNLITDSVAKELSKLHLDRICVTVDGSCSKVHDSQRGKGSFKKAIEGIKNLQRYNLPVSTLFTLGRHNVDDLINTIRLNDMLRIKYMSVMIICPTGRANNGSILADKKHWYPVFLDLTERLSRGEFKVKFKIVPPNESDVFWTHYFPLAFYNRLDLLESVWHQSLNFNSNKKREISCQAGVRACSINHKGDVYGCDLMNGIDELVAGNVKEKSFYEIWHNSSIFHKLRNITFDDISGKCAGCPLPWCGGGCRCSALELDGTLLGSDLACFYDEEESVLV
MGSDKIHHHHHHMREEWLFSRYLNRKRVQRAASLGAGRAETEIALLELGAVEHFDLFDVSSVGIEYAKSIAEEKGFGHKVTCHVGPIGCAELNENTYDLITFVASLHHMEPLAETLERANRALTQHGIIWCANEYIGPDRFDYPVAHAAIAKSFFQQIPPGLRNHWHRELQFPTPQEVAEVDPTEAPCSSKIEPTMRDMFPALEIMPLYGAFAFMVFWGLNHDALYETPEGTELTRFILGMDKALTDAGILPTYFAHIIARKNNAPRQQIHRPGRHSSALLYRYAQRAASILRHLKIR
MGSDKIHHHHHHMRGEQSPNGLHYAREHLSCKNYMTDIDTGFKYIKFDTEKCIEEEYTHKNYLLFFLEGDFSVYCNQFCNRTFHSNEMVVLPKSSMIKISATDKSQMLAMAFDIPQSNCDKLLFQGLSSICENIDYDFSPIPMRYPLMPFLETVVHCLRNEMNCTYLHNVIEREFFFLLRGFYNKKEIATLFHPIIGRQLEFRDFVMQNYSKVNNLDELITLSNIGRTSFFIKFKEEFGITAKQWMMKQLKKRILGKVIEPGICVKQLMEVCNFESQAQLYRYFKQHFRCTPKQLIDRYQAKTDNL
MGSDKIHHHHHHMRGIVLFPIINCSGAMVEITSTEMTPPVNDSHEFIPMRGIRNRHLQTMLPRLIRRKVKFNAHWQRLELPDGDFVDLAWSEDPQQAKYKPRLVVFHGLEGSLNSPYAHGLIEAAQKRGWLGVVMHFRGCSGEPNRLNRIYHSGETEDGAWFLRWLQREFGAVPTAAVGYSLGGNMLACLLAKEGRDIPIEAAVIVSAPFVLEACSYHMDKGFSRVYQRYLLNLLKANASRKLAAYPGSLPVNLAQLKSMRRIREFDDLITAKIHGFADAIDYYRQCSAMPLLNQIAKPTLIIHAKDDPFMDHHVIPKAEDLPPQVEYQLTEHGGHVGFIGGTPLRPEMWLERRIPDWLTTYLEASS
MGSDKIHHHHHHMRGPLRGKVSFPWGLRPLPMLVYHEFGRSMTRPVIGIIGNHHLINDQYATHAGGIMNSEAVAEVSGGLPLIVPSNPAFVDLDDLMATCAGFVFTGGRPNVHPEEYGEDYTDAHGTMDRDRDALTLPLIRACVERGQPILGLCRGFQEVNVAMGGSLYPEIRDLPGRMNHRMPPDGTIEEKFELRHTVTFTEGGPFHRLMGAQQVRTNTLHGQGIKQAGARVIIDGHAEDGTPEAIYIADAPGFTLSVQWHPEYRAAEDPVSRPLFAAFGEAARAWSIGKRPVKAGEVA
MGSDKIHHHHHHMRIALDPYMYRHLSLGAMVDKTAELGYDYIELSPREDFMPFYKYPRVDRARIREFRKALSDAGVKLSSLLPLYHWAAPDEDLRIAAVRNWKRAIEVAVEMDCDLMNTEFSGQSDHALVCENQFMKSMDELMPHFEREGIKLDIQAHPYDFCERNNESVDIIRGLDRDWINYLYAAPHTFFYDDGVGDIASMLRYAGDRLTHLIIADTYNHRASSNLRYIVNPPGVTATVHQHLDIGQGEVNWEAFFSTLRDIKFDGIATVAVFAWEERADESSRFMLERVKSELLR
MGSDKIHHHHHHMRIEVKLLPLKDNPILPFNYNYEVYSQILEKVNSIEPTIAKLLSSPHGFWTFSRIIVRKRKILPDKGIEILSDDVSLYISSSNEDIIRAIAEAVEKSPEFKIGELSFLVGDIKAIKVKELGKENVFSTLSPIVVRTVKFEGNKLRHWDLYPHDELFMDRLRKVMILRYSEVMGETPKDRDFTIEVLKFKPTRLMVGSSYIRGSLMVFRYAGSEEIARFGYENGFGEKTGLGFGMVKLIE
MGSDKIHHHHHHMRIFLVGMMGSGKSTIGKRISEVLDLQFIDMDEEIERREGRSVRRIFEEDGEEYFRLKEKELLKELVERDNVVVATGGGVVVDPENRELLKKEKTLFLYAPPEVLMERVTTENRPLLSEGKERIREIWEKRKQFYAEFRRIDTSRLNEWETTALVVLEALDEKEISTIEKPHLVKIILGGFKRVRNEELVFTTERVEKIYGRYLPENRLLFPDGEEVKTLEHVSRAYYELIRMDFPRGKTIAGVGGGALTDFTGFVASTFKRGVGLSFYPTTLLAQVDASVGGKNAIDFAGVKNVVGTFRMPDYVIIDPTVTLSMDEGRFEEGVVEAFKMTILSGRGVELFDEPEKIEKRNLRVLSEMVKISVEEKARIVMEDPYDMGLRHALNLGHTLGHVYEMLEGVPHGIAVAWGIEKETMYLYRKGIVPKETMRWIVEKVKQIVPIPVPSVDVEKARNLILNDKKILKGSRVRLPYVKEIGKIEFLEVDPLELLEVVD
MGSDKIHHHHHHMRILWINHRDPKHPQAGGAEVRLYEIARRLVKMGHEVMVLCEKVSRLPGEEVLEGIRIKRSGGRASIHLLAPLYVRKHGHEYDVIVDDIAHAVPWYSPLVTKTPVVAQIHHVHQDVVYIELPKPLAWIVSRAEKTIAKIYRRFIAVSQSTKKELAKRLGIDPDRIAVVPNGVDLEKYRPGSKDPRPTILWAGRIKMYKNLDHLLKAYRIVKQEIPDAQLIIIGTGDQEQKMRELAKKLEPRDVHFLGKMSEQEKIMWMQRAWIIVSTSMIEGWGITITEAAACKIPAIAYNVPGLRDSVKHMETGILVEPGNIEQLAKAIAWLLTDNSLRNKLSENAYNYAQSFSWDNTAITFLNILEDITRI
MGSDKIHHHHHHMRILYINHYAGSPRHGMEFRPYYLAREWVKAGHEVNMLAADVSHLRQTHPQVDGKYRDEDIDGIRYTWCKTRPYSGNGVGRVLNIFSFLAKVMGLSRRYLKEWQPDVVIASSTYPLDTVPAAWIAGKTGARLVYEVHDLWPLTPVEVGGMSPKHPFIRLLQWAEDFGYKRADTVVSMLPCARDYMMAHGMAAEKYAVIPNGVDVSEWQGETLPLSAEHRMRLAELKSHGRFIVGYAGGHGLANALDYLLEAAALMRDAPVTFVLVGDGPDKQALVSRAAELKLDNVMFLPSIAKRSVPAFLAECDALYIGWRKLPIYRFGINPNKLFDYMMAGKPVIHSVEAGNDMVKDAGAGLSIGVEDPAVIADAVKRMAVLPLAERETMGAAGKAYVLANHDYAVLARRFLAAVKL
MGSDKIHHHHHHMRIPPLKAIIAFESVARTKSVNRAAEELGLTASAVSHQLSNLESQIGQPLFQRSGRGLVLTPTGERYLTDVTGSLADLSRATERASSRTEVDILRVHSSPSFGLMWLLPRLSSFQEANGDIELNLACSYENVSFSNGFYDIDVRHGYGNWDNLEVRTVRGEFIAPLASPQYLERHPVKAPEDLLAHRLIYSETPLVQWKQWFGRAGVSLAAQKTFDFSFDRSYMSLETAALGLGIALESLMLASVKIREGLLVPVFDATHAVEVGAHHLVYPRQNAELPRVKRFLAWIEREVAGHGRAS
